In one data set the target is T1, AldA (Pseudomonas syringae group genomosp. 3, UniProt Q88BC5).
T1 construct: gene PSPTO_0092; full-length, N-terminal hexahistidine tag (pET28a, NdeI/XhoI), E. coli BL21(DE3); tetramer; catalytic Cys302
As to the kind of experiment: X-ray crystal structure of complex. In kind it is binding. As to conditions: pH 8.5.

For the next data set, the system named is O=CCc1c[nH]c2ccccc12. In words: purified protein. As to conditions: 1.0 mM NAD+, 100 mM Tris-HCl pH 8.0, 100 mM KCl, 25 °C, IAAld varied 0.05-2.5 mM.
In data set [1] the test system is NC(=O)c1ccc[n+]([C@@H]2O[C@H](COP(=O)(O)OP(=O)(O)OC[C@H]3O[C@@H](n4cnc5c(N)ncnc54)[C@H](O)[C@@H]3O)[C@@H](O)[C@H]2O)c1. In words: purified protein. As to conditions: 1.0 mM IAAld, 100 mM Tris-HCl pH 8.0, 100 mM KCl, 25 °C, NAD+ varied, varied: cofactor.
Data set [2] concerns NC(=O)c1ccc[n+]([C@@H]2O[C@H](COP(=O)(O)OP(=O)(O)OC[C@H]3O[C@@H](n4cnc5c(N)ncnc54)[C@H](OP(=O)(O)O)[C@@H]3O)[C@@H](O)[C@H]2O)c1. In words: purified protein. As to conditions: 1.0 mM IAAld, 100 mM Tris-HCl pH 8.0, 100 mM KCl, 25 °C, NADP+ varied, varied: cofactor.
Data set [3] concerns the target Aldehyde dehydrogenase AldB (PSPTO_2673) (Pseudomonas syringae pv. tomato strain DC3000). As to the kind of experiment: SEC; His-tagged protein on a Superdex-200 26/60 column in 25 mM Hepes (pH 7.5), 100 mM NaCl; column calibrated with molecular weight standards.
Data set [4] concerns the target Aldehyde dehydrogenase AldC (PSPTO_3644) (Pseudomonas syringae pv. tomato strain DC3000). The description is as above.
Data set [5] concerns the molecule itself. Described as above.

The values below come from article PMC5766252, “Indole-3-acetaldehyde dehydrogenase-dependent auxin synthesis contributes to virulence of Pseudomonas syringae strain DC3000” (PLoS Pathogens, 2018).

Usually Km stands for the concentration of substrate that gives half-maximal velocity. One may read the kcat as the number of substrate molecules converted per active site and unit of time at saturation. The kcat/Km is the second-order rate constant that governs catalysis at low substrate concentration. In general, stoichiometry N refers to the number of molecules, sites or subunits per partner or assembly.

Take `O=C(O)Cc1c[nH]c2ccccc12` [IAA]: the “X-ray crystal structure of complex” value on AldA (5 mM NAD+ and 5 mM IAA, dead-end ternary complex, 1.93 Å, substrate site near Cys302) is “AldA (5IUU); AldA•NAD^+ (5IUV); and AldA•NAD^+•IAA (5IUW)”.
As for `NC(=O)c1ccc[n+]([C@@H]2O[C@H](COP(=O)(O)OP(=O)(O)OC[C@H]3O[C@@H](n4cnc5c(N)ncnc54)[C@H](O)[C@@H]3O)[C@@H](O)[C@H]2O)c1` [NAD^+], on AldA (5 mM NAD+, cofactor binding site, also in the ternary complex 5IUW), the “X-ray crystal structure of complex” value is “AldA (5IUU); AldA•NAD^+ (5IUV); and AldA•NAD^+•IAA (5IUW)”.
With “AldA (Pseudomonas syringae pv. tomato str. DC3000)”, the Km in the data set with O=CCc1c[nH]c2ccccc12 is 119 ± 37 µM; in data set [1] it was 42 ± 8 µM; in data set [2], 1,960 ± 182 µM. Moreover, the kcat in the data set on O=CCc1c[nH]c2ccccc12 was determined as 3.9 ± 0.35 s⁻¹; in data set [1], 3.23 ± 0.15 s⁻¹; in data set [2] it was 0.5 ± 0.0167 s⁻¹. Besides, the kcat/Km is 32800 M⁻¹ s⁻¹ in the data set on O=CCc1c[nH]c2ccccc12, 77400 M⁻¹ s⁻¹ in data set [1] and 252 M⁻¹ s⁻¹ in data set [2].
Consider “AldB (Pseudomonas syringae pv. tomato str. DC3000)”, for which, in the data set with O=CCc1c[nH]c2ccccc12, the Km stood at 595 ± 39 µM, the kcat stood at 0.145 ± 0.00333 s⁻¹ and the kcat/Km worked out at 244 M⁻¹ s⁻¹. Also, in data set [1], the Km is given as 33.4 ± 9.2 µM, the kcat was 0.035 ± 0.00167 s⁻¹ and the kcat/Km was determined as 1040 M⁻¹ s⁻¹.
Consider “AldC (Pseudomonas syringae pv. tomato str. DC3000)”, for which, in the data set on O=CCc1c[nH]c2ccccc12, the Km is 1,280 ± 161 µM, the kcat was 0.06 ± 0.00333 s⁻¹ and the kcat/Km turned out to be 46 M⁻¹ s⁻¹. In addition, in data set [1], the Km was 445 ± 99 µM, the kcat was 0.00667 ± 0.000167 s⁻¹ and the kcat/Km came to 14 M⁻¹ s⁻¹.
Turning to “Aldehyde dehydrogenase AldB (PSPTO_2673) (enzyme)”, the stoichiometry N in data set [3] came out at 4.
Turning to “Aldehyde dehydrogenase AldC (PSPTO_3644) (enzyme)”, in data set [4], the stoichiometry N was found to be 2.

B1: Indole-3-acetaldehyde dehydrogenase AldA (PSPTO_0092) (enzyme)
chain: MTTLTRADWEQRAQNLKIEGRAFIQGEYTAAASGETFDCISPVDGRLLAKVASCDAADAQRAVESARSAFDSGAWSRLAPAKRKATMIRFAGLLEQNAEELALLETLDMGKPISDSLGVDIPGGARALSWSGEAIDKLYDEVAATPHDQLGLVTREPVGVVAAIVPWNFPLMMACWKLGPALSTGNSVVLKPSEKSPLTAIRIAQLAIEAGIPAGVLNVLPGYGHTVGKALALHMDVDTVVFTGSTKIAKQLMIYAGESNMKRVWLEAGGKSPNIVFADAPDLQAAADSAASAIAFNQGEVCTAGSRLLVERSIKDRFLPMVIEALGTWKPGNPLDPATNVGALVDTQQMNTVLSYIAAGHTDGARLVAGGKQILQETGGTYVEPTIFDGVNNAMRIAQEEIFGPVLSVLTFDTAEEAIQIANDTPYGLAAAVWTANLSKAHLTARALRAGSVWVNQYDGGDMTAPFGGFKQSGNGRDKSLHAFDKYTELKSTWIKL
notes: AldA (PSPTO_0092), aldehyde dehydrogenase of Pseudomonas syringae pv. tomato strain DC3000; estimated Mr 52.7 kDa without the tag; The full-length CDS is stated for the pET21a-0092 construct; pET28a-AldA was made with the same NdeI and XhoI sites; also called IAAld dehydrogenase; source: E. coli BL21 (DE3), pET28a-AldA, purified (Ni-NTA, Superdex-200 size exclusion); not shown: His6, N-terminal, …
Consider B1, for which, in data set [5], the “stoichiometry N” value was determined as 4.
